Measured values published in patent publication US20240141048A1 (DYNAMICURE BIOTECHNOLOGY, published 2024).

T1: His-tagged human VISTA extracellular domain protein (in house) (human, UniProt Q9H7M9 33-194)
T1 construct: also called human VISTA ECD; hVISTA; not shown: His tag
T1 sequence: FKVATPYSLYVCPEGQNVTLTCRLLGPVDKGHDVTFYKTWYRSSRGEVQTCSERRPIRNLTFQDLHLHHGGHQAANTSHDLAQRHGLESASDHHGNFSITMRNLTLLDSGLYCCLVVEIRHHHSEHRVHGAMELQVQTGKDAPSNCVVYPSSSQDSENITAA

T2: His-tagged mouse VISTA extracellular domain protein (in house) (mouse, UniProt Q9D659 33-191)
T2 construct: extracellular domain; also called mouse VISTA ECD; mVISTA; not shown: His tag
T2 sequence (looked up): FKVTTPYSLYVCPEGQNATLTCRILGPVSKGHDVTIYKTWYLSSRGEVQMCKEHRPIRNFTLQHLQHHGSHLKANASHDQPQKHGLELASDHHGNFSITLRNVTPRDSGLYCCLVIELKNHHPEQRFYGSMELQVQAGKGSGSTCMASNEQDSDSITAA

T3: human VISTA full length on Jurkat cells (human, UniProt Q9H7M9 33-311)
T3 construct: also called Jurkat-hVISTA
T3 sequence: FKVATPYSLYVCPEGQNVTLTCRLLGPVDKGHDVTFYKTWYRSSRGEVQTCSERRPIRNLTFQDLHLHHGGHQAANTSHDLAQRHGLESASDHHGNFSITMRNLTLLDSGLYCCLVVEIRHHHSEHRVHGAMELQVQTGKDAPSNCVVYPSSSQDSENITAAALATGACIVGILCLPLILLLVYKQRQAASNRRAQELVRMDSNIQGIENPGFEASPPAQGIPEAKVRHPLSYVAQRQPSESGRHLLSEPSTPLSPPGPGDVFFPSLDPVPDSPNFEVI

T4: mouse VISTA full length on Jurkat cells (mouse, UniProt Q9D659 33-308)
T4 construct: whole, on cells; also called Jurkat-mVISTA
T4 sequence (looked up): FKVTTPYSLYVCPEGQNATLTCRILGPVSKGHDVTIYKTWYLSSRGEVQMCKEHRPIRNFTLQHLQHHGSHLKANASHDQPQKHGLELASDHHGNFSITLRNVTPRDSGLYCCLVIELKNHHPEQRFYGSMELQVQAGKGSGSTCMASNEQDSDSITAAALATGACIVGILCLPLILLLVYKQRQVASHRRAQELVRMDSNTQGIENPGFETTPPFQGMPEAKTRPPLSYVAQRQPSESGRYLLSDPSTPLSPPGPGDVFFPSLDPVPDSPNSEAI


Key:
[1] = target: human VISTA extracellular transmembrane-CD3zeta chimera on Jurkat-nfkb-GFP reporter cells (human, UniProt P20963 52-164); experiment: cell-based or functional assay
[2] = target: T1, His-tagged human VISTA extracellular …; experiment: ELISA, hybridoma supernatant on coated human VISTA ECD (2 µg/ml)
Procedure: (§1) 50 μl of hybridoma supernatant was incubated with human VISTA ECD (2 μg/ml), mouse VISTA ECD (2 μg/mL), cynomolgus VISTA (2 μg/mL), or negative mouse IgG1 control coated on 96 well ELISA plates. Mouse anti-VISTA antibodies were detected by anti-mouse IgG-HRP (Jackson ImmunoResearch, Cat. # 615035214).

[3] = target: T2, His-tagged mouse VISTA extracellular …; experiment: ELISA, hybridoma supernatant on coated mouse VISTA ECD (2 µg/mL)
Procedure: as §1

[4] = target: T3, human VISTA full length on Jurkat cells; experiment: flow cytometry, hybridoma supernatant on Jurkat cells expressing human VISTA
Procedure: (§2) Human and mouse VISTA expressing Jurkat cells were cultured in RPMI1640 with 10% FBS. Cells were seeded into a 96 well plate at 1×10⁵ cells/well. Then the cells were incubated with anti-VISTA hybridoma supernatants for 30 minutes at 4° C. […] After washing with FACS buffer, the cells were incubated with Alexa Fluor 647 conjugated anti-mouse IgG(H+L)(1 μg/ml) (Jackson ImmunoResearch, Cat. #61505214) for 30 minutes at 4° C. After washing with FACS buffer twice, the samples were run in a NovoCyte Flow Cytometer (Agilent). Data was analyzed using the NovoExpress Software.

[5] = target: T4, mouse VISTA full length on Jurkat cells; experiment: flow cytometry, hybridoma supernatant on Jurkat cells expressing mouse VISTA
Procedure: as §2

Binder | percentage of activated Jurkat-NFKb-GFP/hVISTA-hCD3z cells in the presence of OKT3 (3 ng/ml) [1] | binding result [2] | binding result [3] | binding result [4] | binding result [5]
anti-VISTA antibody 15D11 (antibody, V domains shown, Mouse monoclonal from hybridoma) VH: EVQLQQSGSELVKAGASVKLSCTASGFKIKDTFIHWVKQRPEQGLDWIGRIDPANGNSKYDPKFQGKATITADTSSNTAYLQLSSLTSEDTAVYYCARWPSNWEAMDYWGQGTSVTVSS VL: QIVLTQSPAIMSASPGEKVTMTCSASSSVSYMYWYQQKPGSSPRLLIYDTSNLASGVPFRFSGSGSGTSYSLTISRMEAEDAATYYCQQWISYPLTFGTGTKLELK | ≤ 60% | binds | binds | – | –
anti-VISTA antibody 9F9 (antibody, V domains shown, Mouse monoclonal) VH: QVQFQQSGAELARPGASVKLSCKASGYTFTGYWMQWVKQRPGQGLEWIGAIYPGDGDTRYSQKFKGKVTLTADKSSSTAYMQLSSLASEDSAVYYCARRDYGAWFAYWGQGTLVTVSA VL: DIKVTQSPSSMYASLGERVTITCKASQDINSYLSWFQQKPGKSPKTLIYRANRLVDGVPSRFSGSGSGQDYSLTISSLDYEDMGIYYCLQYDEFPYTFGGGTKLEIK | > 60% | binds | binds | binds | binds
anti-VISTA antibody 17E9 (antibody, IgG1, V domains shown, Mouse monoclonal; Tested as hybridoma supernatant and as recombinant mIgG1) VH: QVQLQQSGAELMKPGASVKISCTATGYTFSSCWIEWVKQRPGHGLEWLGEILPGSDYTNYNEKFKDKATFTADTSSDTAYMQLSSLTSEDSAVYYCARRPPGWYFDVWGAGTAVTVSS VL: DIVMTQSHKFMSTSVGDRVSITCKASQDVSTDIAWYQQKPGQSPKLLIYSASYRFTGVPDRFTGSGSGTDFTFTISSVQAEDLAVYYCQHQYSTPWTFGGGTKLDIK | – | binds | binds | binds | binds
anti-VISTA antibody 16A1 (antibody, IgG1, V domains shown, Mouse monoclonal; Tested as hybridoma supernatant and as recombinant mIgG1) VH: QVQLQQSGAELMKPGASVKISCKATGYTFSSSWIEWVKQRPGHGLEWIGEIFPGSGSLNFNEKFKGKATFTADTSSNTAYLQLSSLTSDDSAVYYCARRPPGWFFDVWGAGTTVTVSS VL: DIVMTQSHKFMSTSVGDRVSITCKASQDVTTDVAWYQQKPGQSPKLLIYSASYRYTGVPDRFTGSGSGTDFTFTISSVQAEDLTVYYCQQHYSSPWTFGGGTKLEIK | – | binds | – | binds | –
anti-VISTA antibody 20E4 (antibody, IgG1, V domains shown, Mouse monoclonal; Tested as hybridoma supernatant and as recombinant mIgG1) VH: QVQLQQSGAELMKPGASVKISCKATGYTFSSSWVEWVRQRPGHGLEWIGEIFPGSGSTHYNEKFKGKATFTADTSSNTAYLQLSSLTSDDSAVYYCARRPPGWFFDVWGAGTTVTVSS VL: DIVMTQSHKFMSTSVGDRVSITCKASQDVSTDVAWYQQKPGQSPKLLIYSASYRYTGVPDRFTGSGSGTDFTFTISSVQAEDLAVYYCQQHYSTPWTFGGGTKLEIK | – | binds | binds | binds | binds
